We go through one substance from patent US20050244868A1.

Assay [1] has as its target CG55069 (Ten-M3), endogenous on human tumour, lymphoma and leukemia cell lines (human) (UniProt Q9P273). The experiment in a line: flow cytometry on SUP-M2 cells, negative control antibody.
Assay [2] shares this target. Briefly: flow cytometry on MV4-11 cells, negative control antibody.
The target is the same in assay [3]. Briefly: flow cytometry on CCRF-CEM cells, negative control antibody. (In general: A flow cytometer gives signals particle by particle.)
For assay [4] the target is unchanged. Briefly: flow cytometry on SR cells, negative control antibody.
For assay [5] the target is unchanged. Briefly: flow cytometry on Karpas 299 cells, negative control antibody.
Assay [6] shares this target. Briefly: flow cytometry on DEL cells, negative control antibody.
For assay [7] the target is unchanged. The experiment in a line: flow cytometry on SU-DHL-4 cells, negative control antibody.
Assay [8] shares this target. The experiment in a line: flow cytometry on MOLT-4 cells, negative control antibody.

UniProt Q9P273, sequence (Q9P273 other isoform, or with tags, fused parts or gaps): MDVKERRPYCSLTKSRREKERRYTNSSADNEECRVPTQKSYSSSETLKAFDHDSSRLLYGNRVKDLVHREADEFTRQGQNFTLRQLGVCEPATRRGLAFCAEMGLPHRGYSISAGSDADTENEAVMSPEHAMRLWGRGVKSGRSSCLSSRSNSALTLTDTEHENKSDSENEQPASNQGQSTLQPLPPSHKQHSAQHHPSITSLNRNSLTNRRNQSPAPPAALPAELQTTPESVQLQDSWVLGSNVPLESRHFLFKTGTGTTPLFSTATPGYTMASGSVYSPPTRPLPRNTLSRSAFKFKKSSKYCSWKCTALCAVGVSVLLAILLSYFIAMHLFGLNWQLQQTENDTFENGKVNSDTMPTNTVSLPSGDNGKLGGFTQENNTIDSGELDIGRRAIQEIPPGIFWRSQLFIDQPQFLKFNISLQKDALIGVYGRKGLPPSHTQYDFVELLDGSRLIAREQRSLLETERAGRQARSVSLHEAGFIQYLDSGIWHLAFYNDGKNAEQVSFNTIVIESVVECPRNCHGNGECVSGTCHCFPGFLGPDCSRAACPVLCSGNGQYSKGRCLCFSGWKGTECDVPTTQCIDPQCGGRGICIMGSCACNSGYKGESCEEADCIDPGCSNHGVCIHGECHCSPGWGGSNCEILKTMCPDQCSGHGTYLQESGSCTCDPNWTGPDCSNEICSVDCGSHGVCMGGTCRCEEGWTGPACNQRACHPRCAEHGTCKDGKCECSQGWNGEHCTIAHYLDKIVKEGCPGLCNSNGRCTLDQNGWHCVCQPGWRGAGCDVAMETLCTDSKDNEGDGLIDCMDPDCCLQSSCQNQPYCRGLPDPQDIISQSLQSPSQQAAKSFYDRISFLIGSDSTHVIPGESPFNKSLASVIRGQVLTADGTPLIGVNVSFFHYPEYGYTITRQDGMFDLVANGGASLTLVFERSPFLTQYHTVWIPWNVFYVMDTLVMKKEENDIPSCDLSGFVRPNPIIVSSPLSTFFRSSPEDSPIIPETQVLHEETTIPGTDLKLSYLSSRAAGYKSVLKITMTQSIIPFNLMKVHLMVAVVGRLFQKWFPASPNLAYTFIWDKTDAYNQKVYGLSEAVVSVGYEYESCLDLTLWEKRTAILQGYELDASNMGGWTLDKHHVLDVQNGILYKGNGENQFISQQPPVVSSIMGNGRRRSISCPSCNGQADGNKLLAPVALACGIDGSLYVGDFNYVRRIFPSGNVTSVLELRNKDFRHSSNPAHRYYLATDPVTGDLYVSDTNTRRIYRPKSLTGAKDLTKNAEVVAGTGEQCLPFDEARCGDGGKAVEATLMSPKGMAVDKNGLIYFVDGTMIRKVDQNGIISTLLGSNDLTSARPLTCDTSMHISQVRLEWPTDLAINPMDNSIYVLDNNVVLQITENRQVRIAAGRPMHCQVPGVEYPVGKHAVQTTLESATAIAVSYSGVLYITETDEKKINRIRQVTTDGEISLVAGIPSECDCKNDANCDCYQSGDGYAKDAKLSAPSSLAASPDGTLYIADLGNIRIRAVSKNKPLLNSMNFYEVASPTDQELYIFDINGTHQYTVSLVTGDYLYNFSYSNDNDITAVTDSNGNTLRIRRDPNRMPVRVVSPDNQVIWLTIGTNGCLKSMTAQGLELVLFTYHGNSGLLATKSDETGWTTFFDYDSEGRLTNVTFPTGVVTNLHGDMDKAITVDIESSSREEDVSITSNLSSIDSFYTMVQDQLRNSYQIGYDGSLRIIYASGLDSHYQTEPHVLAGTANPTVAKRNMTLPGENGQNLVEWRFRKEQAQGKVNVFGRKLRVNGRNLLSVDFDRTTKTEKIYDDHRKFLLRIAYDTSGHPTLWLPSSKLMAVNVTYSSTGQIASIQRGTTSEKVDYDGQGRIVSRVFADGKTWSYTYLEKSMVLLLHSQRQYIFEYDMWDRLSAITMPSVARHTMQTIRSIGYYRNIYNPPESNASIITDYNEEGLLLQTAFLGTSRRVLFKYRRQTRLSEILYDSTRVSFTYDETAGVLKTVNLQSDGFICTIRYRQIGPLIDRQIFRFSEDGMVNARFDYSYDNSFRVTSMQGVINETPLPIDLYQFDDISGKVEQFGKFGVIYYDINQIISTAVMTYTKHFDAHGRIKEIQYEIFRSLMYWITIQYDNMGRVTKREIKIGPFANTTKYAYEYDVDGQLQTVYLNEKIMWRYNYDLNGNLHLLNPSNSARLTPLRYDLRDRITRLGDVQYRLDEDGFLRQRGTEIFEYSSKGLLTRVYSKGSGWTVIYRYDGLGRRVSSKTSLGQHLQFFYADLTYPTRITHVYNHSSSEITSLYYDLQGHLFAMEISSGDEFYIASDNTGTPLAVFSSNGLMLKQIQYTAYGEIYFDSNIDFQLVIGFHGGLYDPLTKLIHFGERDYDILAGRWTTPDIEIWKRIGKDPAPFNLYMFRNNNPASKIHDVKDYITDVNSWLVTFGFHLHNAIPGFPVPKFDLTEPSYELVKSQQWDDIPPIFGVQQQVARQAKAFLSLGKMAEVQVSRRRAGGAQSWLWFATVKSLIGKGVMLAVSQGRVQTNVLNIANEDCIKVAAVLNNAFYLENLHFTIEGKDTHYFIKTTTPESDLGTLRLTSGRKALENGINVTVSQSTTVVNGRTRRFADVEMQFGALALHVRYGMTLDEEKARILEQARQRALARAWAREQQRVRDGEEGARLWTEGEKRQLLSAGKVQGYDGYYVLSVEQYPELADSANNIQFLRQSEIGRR

Turning to Rabbit negative (control antibody), the Geo Mean Ratio in assay [1] was 6.13; in assay [2], 90.7; in assay [3], 4.22; in assay [4], 4.29; in assay [5] it was 5.08; in assay [6] it was 7.41. Further, the Geo Mean Ratio in assay [7] amounted to 2.38; in assay [8], 4.13.
